# Source: patent publication US20230333112A1 (MARENGO THERAPEUTICS, published 2023)
# T1: Human NKp30 (BKM0179) (human, UniProt O14931 19-135, limits assumed)
# T1 sequence (looked up): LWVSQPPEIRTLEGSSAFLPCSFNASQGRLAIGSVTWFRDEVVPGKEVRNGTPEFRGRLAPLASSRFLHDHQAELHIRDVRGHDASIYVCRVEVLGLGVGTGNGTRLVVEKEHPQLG
# B1: BKM0138 (antibody, V domains shown)
# VH: EIQLLESGGGLVQPGGSLRLSCAVSGFSITTTGYHWNWVRQAPGKGLEWVGYIYSSGSTSYNPSLKSRFTISRDTSKNTFYLQMNSLRAEDTAVYYCARGDWHYFDYWGQGTMVTVSS
# VL: DSVTTQSPLSLPVTLGQPASISCSGEKLSDKYVHWYQQRPGQSPRMLIYENDRRPSGVPDRFSGSNSGNDATLKISRVEAEDVGVYFCQFWDSTASAVFGGGTKVEIK
# notes: also called BJM0411 VL-N95A
# B2: BKM0139 (antibody, V domains shown)
# VH: EIQLLESGGGLVQPGGSLRLSCAVSGFSITTTGYHWNWVRQAPGKGLEWVGYIYSSGSTSYNPSLKSRFTISRDTSKNTFYLQMNSLRAEDTAVYYCARGDWHYFDYWGQGTMVTVSS
# VL: DSVTTQSPLSLPVTLGQPASISCSGEKLSDKYVHWYQQRPGQSPRMLIYENDRRPSGVPDRFSGSNSGNDATLKISRVEAEDVGVYFCQFWASTNSAVFGGGTKVEIK
# notes: also called BJM0411 VL-D92A
# B3: BKM0144 (antibody, V domains shown)
# VH: EIQLLESGGGLVQPGGSLRLSCAVSGFSITTTGYHWNWVRQAPGKGLEWVGYIYSSGSTSYAPSLKSRFTISRDTSKNTFYLQMNSLRAEDTAVYYCARGDWHYFDYWGQGTMVTVSS
# VL: DSVTTQSPLSLPVTLGQPASISCSGEKLSDKYVHWYQQRPGQSPRMLIYENDRRPSGVPDRFSGSNSGNDATLKISRVEAEDVGVYFCQFWASTASAVFGGGTKVEIK
# notes: also called BJM0411 VH-N60A-VL-D92A-N95A
# B4: BKM0141 (antibody, V domains shown)
# VH: EIQLLESGGGLVQPGGSLRLSCAVSGFSITTTGYHWNWVRQAPGKGLEWVGYIYSSGSTSYNPSLKSRFTISRDTSKNTFYLQMNSLRAEDTAVYYCARGDWHYFDYWGQGTMVTVSS
# VL: SSETTQPPSVSVSPGQTASITCSGEKLSDKYVHWYQQKPGQSPVMVIYENDRRPSGIPERFSGSNSGNTATLTISGTQAMDEADYFCQFWDSTASAVFGGGTQLTVL
# notes: also called BJM0407 VL-N95A
# B5: BKM0145 (antibody, V domains shown)
# VH: EIQLLESGGGLVQPGGSLRLSCAVSGFSITTTGYHWNWVRQAPGKGLEWVGYIYSSGSTSYAPSLKSRFTISRDTSKNTFYLQMNSLRAEDTAVYYCARGDWHYFDYWGQGTMVTVSS
# VL: SSETTQPPSVSVSPGQTASITCSGEKLSDKYVHWYQQKPGQSPVMVIYENDRRPSGIPERFSGSNSGNTATLTISGTQAMDEADYFCQFWASTASAVFGGGTQLTVL
# notes: also called BJM0407 VH-N60A-VL-D92A-N95A
# B6: BKM0140 (antibody, V domains shown)
# VH: EIQLLESGGGLVQPGGSLRLSCAVSGFSITTTGYHWNWVRQAPGKGLEWVGYIYSSGSTSYNPSLKSRFTISRDTSKNTFYLQMNSLRAEDTAVYYCARGDWHYFDYWGQGTMVTVSS
# VL: SSETTQPPSVSVSPGQTASITCSGEKLSDKYVHWYQQKPGQSPVMVIYENDRRPSGIPERFSGSNSGNTATLTISGTQAMDEADYFCQFWASTNSAVFGGGTQLTVL
# notes: also called BJM0407 VL-D92A
# B7: BKM0143 (antibody, V domains shown)
# VH: EIQLLESGGGLVQPGGSLRLSCAVSGFSITTTGYHWNWVRQAPGKGLEWVGYIYSSGSTSYAPSLKSRFTISRDTSKNTFYLQMNSLRAEDTAVYYCARGDWHYFDYWGQGTMVTVSS
# VL: SSETTQPPSVSVSPGQTASITCSGEKLSDKYVHWYQQKPGQSPVMVIYENDRRPSGIPERFSGSNSGNTATLTISGTQAMDEADYFCQFWDSTNSAVFGGGTQLTVL
# notes: also called BJM0407 VH-N60A
# B8: BKM0142 (antibody, V domains shown)
# VH: EIQLLESGGGLVQPGGSLRLSCAVSGFSITTTGYHWNWVRQAPGKGLEWVGYIYSSGSTSYAPSLKSRFTISRDTSKNTFYLQMNSLRAEDTAVYYCARGDWHYFDYWGQGTMVTVSS
# VL: DSVTTQSPLSLPVTLGQPASISCSGEKLSDKYVHWYQQRPGQSPRMLIYENDRRPSGVPDRFSGSNSGNDATLKISRVEAEDVGVYFCQFWDSTNSAVFGGGTKVEIK
# notes: also called BJM0411 VH-N60A
# Biological target: T1, Human NKp30 (BKM0179)
# Test: SPR (BIAcore T200); human NKp30 BKM0179 captured on a CM5 chip via anti-mouse Fc, antibody construct injected at 3.9-125 nM; 1:1 model
# Experimental: In this example, a series of exemplary anti-NKp30 antibody molecules were analyzed for their binding affinity for NKp30. Briefly, surface plasmon resonance (SPR) measurements were performed by using the BIAcore T200. Human NKp30 (BKM0179) was immobilized on a CM5 chip via anti-mouse Fc antibody to a response of 50 RU. […] The data was fit using a 1:1 binding model.
row,Binder,Kd
1,B1,3.2 nM
2,B2,3.2 nM
3,B3,6.4 nM
4,B4,3 nM
5,B5,4.2 nM
6,B6,3.3 nM
7,B7,1.45 nM
8,B8,1.28 nM
